Series [1] deals with T1, α-fructosyl-valyl-histidine.
T1 chain: VH

For series [2], the target named is T2, α-fructosyl-valyl-histidyl-leucyl-threonyl-proryl-glutamic acid.
T2 chain: VHLTPE

Chain of hemoglobin A1c, P68871 (P68871 2-147, chain 1 of 2): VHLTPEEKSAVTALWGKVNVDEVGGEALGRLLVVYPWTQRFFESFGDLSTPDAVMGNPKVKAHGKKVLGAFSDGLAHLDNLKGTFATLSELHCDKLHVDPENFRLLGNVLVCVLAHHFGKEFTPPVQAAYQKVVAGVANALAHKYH
Chain of hemoglobin A1c, P68871 (chain, as listed by the source, chain 2 of 2): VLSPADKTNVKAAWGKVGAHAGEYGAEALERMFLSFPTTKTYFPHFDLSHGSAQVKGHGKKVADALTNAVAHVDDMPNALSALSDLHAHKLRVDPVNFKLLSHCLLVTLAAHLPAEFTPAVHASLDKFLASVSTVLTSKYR

B1: CFP-T7-H35 (protein)
chain: MTSNRADTRVIVVGGGGTIGSSTALHLVRSGYAPANITVLDTFEIPSAQSAGHDLNKIMGIDHRNKVDLQMSLEARQMWKEDELFQPFFHNTGRMDCEHTPKGIEKLKKLYQKLHDAGAGLEKTHAWLDNEDEILSKMPLLQRDQIQGWKAIWSQDGGWLAAAKAINAIGQFLKERGVKFGFGGAGSFKQPLFDDEGTTCIGVETADGTKYYADKVVLAAGAWSPTLVDLEDQCCSKAWVYAHIQLTPEEAAEYKGVPVVYNGEFGFFFEPDEFGVIKVCDEFPGFSRFKEHQPYGAPSPKRISVPRSHAKHPTDTYPDASEVSIKKAIATFLPRFQDKELFNRALCWCTDTADSALLMCEHPKWKNFILATGDSGHSFKILPNVGKYVVELIEGRLPEEMAYQWRWRPGGDALKSRRAAPPKDLADMPGWKHDPKL
As for B1, the Specific activity (U/mg), 1 mM αFVH in series [1] was determined as 1.9 U/mg. Also, in the series with hemoglobin A1c, P68871, the “ΔA at 751 nm (hydrogen peroxide generated upon oxidation of the HbA1c β-chain amino terminus) against HbA1c concentration; heat-treated sample” value is “When Reagent C1 was used, a good correlation was established between the HbA1c concentration and ΔA”; the “ΔA at 751 nm against HbA1c concentration; acid-treated sample (Reagent D1 or D2, Reagent F1)” value is “In both cases where the sample was diluted with either Reagent D1 or Reagent D2, a good correlation was established between the HbA1c concentration and ΔA”. Besides, in series [2], the Specific activity (U/mg), 1 mM αF6P was 4.27 U/mg; the “specific activity on αF6P, fold over FAOAo2 (Comparative Example 2)” value is on record as 1.940 times (Amadoriase 25/Comparative Example 2); the αF6P oxidation activity ratio (relative value (CFP-T7-H28 = 100)) is 206.

The values are drawn from patent US20160251695.
